Source: patent US20240252614A1 (Pfizer, published 2024)

Tests used:
F protein of hPIV1 virus = F protein of hPIV1 virus (human parainfluenza virus 1); test: cell-based or functional assay
PIV1045 = target: T1, PIV1045 (PIV1); test: BLI, 56C stress;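 further: binding of thermally stressed PIV1 F mutant supernatant to mAb on AHC biosensors for 5 min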
T1 construct: Q92L, G134A
Procedure: (§1) All measurements were conducted at 30° C. temperature in 96-well black plates (Corning, Corning, NY) with a final volume of 240 μL per well at a constant agitation rate of 1000 RPM.
(§2) Conformation integrity of PIV1 F protein mutants were evaluated by a thermal stress experiment. Crude cell culture supernatants were normalized based on the results of the titer quantitation and then incubated for 1 hour at room temperature and two higher temperatures. For the initial testing of PIV1 mutants, the two temperatures were 50° C. and 53° C. […] Anti-Human IgG Fc Capture (AHC) biosensors were first equilibrated in PB for before being dipped into more PB to establish the initial baseline. […] The mAb-bound biosensors were then dipped into the thermal stresses cell culture supernatants for 5 minutes.

PIV1043 = target: T2, PIV1043 (PIV1); test: BLI, 56C stress;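 further: binding of thermally stressed PIV1 F mutant supernatant to mAb on AHC biosensors for 5 min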
T2 construct: Q92A, G134A
Procedure: as §1, §2

PIV1042 = target: T3, PIV1042 (PIV1); test: BLI, 56C stress;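 further: binding of thermally stressed PIV1 F mutant supernatant to mAb on AHC biosensors for 5 min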
T3 construct: Q92A
Procedure: as §1, §2

PIV1046 = target: T4, PIV1046 (PIV1); test: BLI, 56C stress;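 further: binding of thermally stressed PIV1 F mutant supernatant to mAb on AHC biosensors for 5 min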
T4 construct: A466V, S473V
Procedure: as §1, §2

PIV1044 = target: T5, PIV1044 (PIV1); test: BLI, 56C stress
T5 construct: Q92L
Procedure: as §1, §2

PIV1027 = target: T6, PIV1027 (PIV1); test: BLI, 50C stress
T6 construct: S473L
Procedure: as §1, §2

PIV1014 = target: T7, PIV1014 (PIV1); test: BLI, 50C stress
T7 construct: Q92C-G134C
Procedure: as §1, §2

PIV1030 = target: T8, PIV1030 (PIV1); test: BLI, 50C stress
T8 construct: A466L, S473A
Procedure: as §1, §2

PIV1039 = target: T9, PIV1039 (PIV1); test: BLI, 50C stress
T9 construct: A128P
Procedure: as §1, §2

PIV1028 = target: T10, PIV1028 (PIV1); test: BLI, 50C stress
T10 construct: A480L
Procedure: as §1, §2

PIV1036 = target: T11, PIV1036 (PIV1); test: BLI, 50C stress
T11 construct: G134A
Procedure: as §1, §2

PIV1026 = target: T12, PIV1026 (PIV1); test: BLI, 50C stress
T12 construct: S473V
Procedure: as §1, §2

PIV1023 = target: T13, PIV1023 (PIV1); test: BLI, 50C stress
T13 construct: A466L
Procedure: as §1, §2

PIV1033 = target: T14, PIV1033 (PIV1); test: BLI, 50C stress
T14 construct: T198A
Procedure: as §1, §2

PIV1024 = target: T15, PIV1024 (PIV1); test: BLI, 50C stress
T15 construct: A466V
Procedure: as §1, §2

PIV1031 = target: T16, PIV1031 (PIV1); test: BLI, 50C stress
T16 construct: A466L, S473L
Procedure: as §1, §2

[1] = target: F protein of hMPV B virus (human metapneumovirus B); test: cell-based or functional assay
[2] = target: F protein of hMPV A virus (human metapneumovirus A); test: cell-based or functional assay
hMPV046 = target: T17, hMPV046 (hMPV A, UniProt Q6WB98 19-102); test: BLI, no stress
T17 construct: A140C-S149C
Procedure: (§3) The OCTET HTX (Sartorius, Gottingen, Germany) instrument was used to evaluate the expression and conformational integrity for each mutant. All measurements were conducted at 30° C. temperature in 96-well black plates (Corning, Corning, NY) with a final volume of 240 μL per well at a constant agitation rate of 1000 RPM.
(§4) Conformation integrity of hMPV A F protein mutants were evaluated by thermal stress experiments. Crude cell culture supernatants were normalized based on the results of the titer quantitation and then incubated for 1 hour at room temperature and two higher temperatures. […] Anti-Human IgG Fc Capture (AHC) biosensors were first equilibrated in PB before being dipped into more PB to establish the initial baseline. […] The mAb-bound biosensors were then dipped into the thermal stressed cell culture supernatants for 5 minutes. The kinetics analysis was done by OCTET data analysis software (version 12.0, Sartorius) based on curve fitting of the entire associate step.

hMPV063 = target: T18, hMPV063 (hMPV A, UniProt Q6WB98 19-102); test: BLI, no stress
T18 construct: G239A
Procedure: as §3, §4

hMPV077 = target: T19, hMPV077 (hMPV A, UniProt Q6WB98 19-102); test: BLI, no stress
T19 construct: Q476C, S477C
Procedure: as §3, §4

hMPV050 = target: T20, hMPV050 (hMPV A, UniProt Q6WB98 19-102); test: BLI, no stress
T20 construct: V148C-L158C
Procedure: as §3, §4

hMPV060 = target: T21, hMPV060 (hMPV A, UniProt Q6WB98 19-102); test: BLI, no stress
T21 construct: A459P
Procedure: as §3, §4

hMPV059 = target: T22, hMPV059 (hMPV A, UniProt Q6WB98 19-102); test: BLI, no stress
T22 construct: V449P
Procedure: as §3, §4

B1: PIV1-8 mAb (antibody, V domains shown)
VH: QVQLVQSGAEVKKPGSSVKVSCEASGGTFSNYVISWVRQAPGQGLEWMGGIIPVFATAKYAQKFQGRVTIIADQSTNTAYLELSSLRSDDTAVYFCASVDSGGTWWDAFAIWGQGTMVTVSS
VL: QAVVTQPRSVSGSPGQAVTISCTGTSSDVGGYNYVSWYQHHPGKAPKLIIYDVTKRPSGVPDRFSGSKSGNTASLTISGLQTEYEADYYCCSYAGSYTLVFGGGTKLTVLG
notes: human IgG1; also called hPIV1-8 mAb; hPIV1-8
F protein of hPIV1 virus
  IC50, virus neutralization assay: 5 ng/mL
PIV1045
  Response Shift: -0.095 nm
PIV1043
  Response Shift: -0.102 nm
PIV1042
  Response Shift: -0.103 nm
PIV1046
  Response Shift: -0.091 nm
PIV1044
  Response Shift: -0.122 nm
PIV1027
  Response Shift: -0.022 nm
PIV1014
  Response Shift: 0.011 nm
PIV1030
  Response Shift: -0.031 nm
PIV1039
  Response Shift: -0.039 nm
PIV1028
  Response Shift: -0.018 nm
PIV1036
  Response Shift: 0.007 nm
PIV1026
  Response Shift: -0.022 nm
PIV1023
  Response Shift: 0.018 nm
PIV1033
  Response Shift: -0.027 nm
PIV1024
  Response Shift: 0.022 nm
PIV1031
  Response Shift: 0.72 nm

B2: hMPV-2 mAb (antibody, V domains shown)
VH: QVQLQQSGAEVKKPGASVKVSCKASGYTFTSYGISWVRQAPGQGLEWMGWISGYNGNTNYAQTFQGTFTMTTDTSTSTAYMELRRLRSGDTAVYYCARDRYYASGSYNGMDVWGQGTTVTVSS
VL: QSALTQPPSASGAPGQRVTVSCSGSSSNVGSSSVYWYQQLPGTAPKLLIYRNNQRPSGVPDRFSGSKSGTSASLAISGLRSEDEADYYCAAWDDSLSGWVFGGGTKLTVLG
notes: human IgG1
[1]
  IC50, virus neutralization assay: 23.2 µg/mL
[2]
  IC50, virus neutralization assay: 20 µg/mL
hMPV046
  Response Shift: 0.573 nm
hMPV063
  Response Shift: 0.854 nm
hMPV077
  Response Shift: 0.751 nm
hMPV050
  Response Shift: 0.669 nm
hMPV060
  Response Shift: 0.769 nm
hMPV059
  Response Shift: 0.719 nm
